Holding throughout (assay): ITC; ITC: 20 mM Tris pH 7.25, 100 mM KCl, 5 mM MgCl2, 1 mM DTT, 298 K; protein titrated into RNA
What all share (conditions): protein: recombinant; tags: N-terminal His6 (TEV-cleavable); stem-loop with internal bulge

In series [1] the target is T1, HsLARP6(70-300) D112A (Homo sapiens, UniProt Q9BRS8 70-300, D112A).
T1 sequence: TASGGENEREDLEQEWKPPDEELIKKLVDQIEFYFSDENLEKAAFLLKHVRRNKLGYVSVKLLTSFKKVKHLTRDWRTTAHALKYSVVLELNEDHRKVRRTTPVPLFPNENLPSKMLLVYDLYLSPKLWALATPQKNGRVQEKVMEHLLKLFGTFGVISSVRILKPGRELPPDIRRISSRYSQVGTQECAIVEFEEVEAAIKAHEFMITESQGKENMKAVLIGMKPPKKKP

Series [2] has as its target T2, HsLARP6(70-300) K86A (Homo sapiens, UniProt Q9BRS8 70-300, K86A).
T2 sequence: T1 sequence with K17A, A43D

Series [3] deals with T3, HsLARP6(74-313) (Homo sapiens, UniProt Q9BRS8 74-313).
T3 sequence: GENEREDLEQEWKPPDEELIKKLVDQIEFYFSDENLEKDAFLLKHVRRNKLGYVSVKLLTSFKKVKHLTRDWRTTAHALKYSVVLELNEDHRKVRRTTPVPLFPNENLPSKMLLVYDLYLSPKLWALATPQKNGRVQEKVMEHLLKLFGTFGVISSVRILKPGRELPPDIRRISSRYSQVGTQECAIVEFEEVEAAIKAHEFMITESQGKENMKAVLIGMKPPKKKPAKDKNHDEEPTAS

The target of series [4] is T4, HsLARP6(70-300) I260A (Homo sapiens, UniProt Q9BRS8 70-300, I260A).
T4 sequence: T1 sequence with A43D, I191A

For series [5], the target named is T5, HsLARP6(70-300) R231A (Homo sapiens, UniProt Q9BRS8 70-300, R231A).
T5 sequence: T1 sequence with A43D, R162A

Series [6] deals with T6, HsLARP6(70-300) R244A (Homo sapiens, UniProt Q9BRS8 70-300, R244A).
T6 sequence: T1 sequence with A43D, R175A

Series [7] deals with T7, RRM1 chimera (Homo sapiens, UniProt Q9BRS8 70-179+P05455:111-202, internal_change).
T7 sequence: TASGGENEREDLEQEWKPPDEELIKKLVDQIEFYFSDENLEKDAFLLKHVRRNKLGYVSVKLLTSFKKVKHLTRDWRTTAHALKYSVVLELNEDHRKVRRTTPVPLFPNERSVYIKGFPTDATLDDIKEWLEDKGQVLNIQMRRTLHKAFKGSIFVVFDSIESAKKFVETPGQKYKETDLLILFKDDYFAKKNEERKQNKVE

For series [8], the target named is T8, HsLARP6(70-300) F102A (Homo sapiens, UniProt Q9BRS8 70-300, F102A).
T8 sequence: T1 sequence with F33A, A43D

Residue numbers refer to the chain shown, from its start.

As a reminder, the Kd is the concentration at which binding is half-saturated. CCACAAAGAGUCUACAUGUCUAGGGUCUAGACAUGUUCAGCUUUGUGG (structured_RNA) [48 nt RNA (collagen alpha1(I) 5' UTR SL)]: the Kd in series [1] was determined as 172 nM; in series [2] it was 77 nM; in series [3], 26 nM; in series [4] it was 26 nM; in series [5], 20 nM; in series [6], 71 nM. Also, the binding result in series [7] and in series [8] was “no binding” throughout.

The values above are taken from publication PMC4288179, “Synergic interplay of the La motif, RRM1 and the interdomain linker of LARP6 in the recognition of collagen mRNA expands the RNA binding repertoire of the La module”.
